From patent publication US20250019450A1 (DIAGONAL THERAPEUTICS, published 2025)

Biological target: human IL-12 receptor (IL-12Rβ1 and IL-12Rβ2) on HEK-Blue IL-12 cells (human, UniProt P42701 24-662; Q99665 24-862)
Test: cell-based or functional assay

Chain of human IL-12 receptor (IL-12Rβ1 and IL-12Rβ2) on HEK-Blue IL-12 cells (Q99665 24-862, chain 2 of 2, other chains not shown): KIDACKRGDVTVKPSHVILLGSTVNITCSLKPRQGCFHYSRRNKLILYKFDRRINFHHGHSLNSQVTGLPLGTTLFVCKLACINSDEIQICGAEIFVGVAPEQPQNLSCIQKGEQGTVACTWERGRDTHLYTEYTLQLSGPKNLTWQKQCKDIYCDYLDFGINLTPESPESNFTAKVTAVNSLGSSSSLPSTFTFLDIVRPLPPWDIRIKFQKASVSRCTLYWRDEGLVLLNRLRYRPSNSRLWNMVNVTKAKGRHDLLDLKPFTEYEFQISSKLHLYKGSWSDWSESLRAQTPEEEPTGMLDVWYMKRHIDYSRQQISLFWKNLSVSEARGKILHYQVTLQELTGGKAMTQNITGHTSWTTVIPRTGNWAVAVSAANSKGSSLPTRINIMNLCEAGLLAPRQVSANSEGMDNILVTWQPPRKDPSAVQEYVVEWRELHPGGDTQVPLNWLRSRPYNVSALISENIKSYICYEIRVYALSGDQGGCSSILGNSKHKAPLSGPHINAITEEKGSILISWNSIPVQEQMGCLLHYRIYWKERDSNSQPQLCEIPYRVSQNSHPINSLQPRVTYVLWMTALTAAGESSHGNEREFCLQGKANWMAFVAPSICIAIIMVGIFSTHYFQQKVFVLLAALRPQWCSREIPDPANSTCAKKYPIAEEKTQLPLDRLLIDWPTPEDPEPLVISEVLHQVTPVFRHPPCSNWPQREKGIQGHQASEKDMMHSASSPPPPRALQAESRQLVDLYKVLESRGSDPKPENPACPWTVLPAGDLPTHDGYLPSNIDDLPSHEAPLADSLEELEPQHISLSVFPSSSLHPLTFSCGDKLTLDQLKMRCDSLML

Row | Binder | EC50 | Max Absorbance
1 | DGL545 (bispecific antibody, V domains shown) V domain 1: QVQLVESGGGAVQAGGSLRLSCAASGLTSRHYVMAWFRQAPGIEREFVASIWWGGSTYYADSVKDRFTISRDNAENTVYLQMNSLKPEDTAVYRCAVGTKIGTMGPRYDYWGQGTQVTVEP V domain 2: QVQLVESGGGLVQAGGSLRLSCAASGRTFSSYAMGWFRQAPGKEREFVSAISWSGLSTYYVESVQGRFTISRDNAKNTVYLQMNSLKPEDTAVYYCAASRIYTNYVARSYEYDDWGQGTQVTVEP | > 100 nM | 0.59
2 | DGL398 (bispecific antibody, human IgG1, kappa) heavy 1: not shown heavy 2: QVQLVESGGGLVQAGGSLRLSCAASGRTFSSYAMGWFRQAPGKEREFVSAISWSGLSTYYVESVQGRFTISRDNAKNTVYLQMNSLKPEDTAVYYCAASRIYTNYVARSYEYDDWGQGTQVTVEPKSSDKTHTCPPCPAPEAAGAPSVFLFPPKPKDTLMISRTPEVTCVVVDVSHEDPEVKFNWYVDGVEVHNAKTKPREEQYNSTYRVVSVLTVLHQDWLNGKEYKCKVSNKALPAPIEKTISKAKGQPREPQVCTLPPSRDELTKNQVSLSCAVKGFYPSDIAVEWESNGQPENNYKTTPPVLDSDGSFFLVSKLTVDKSRWQQGNVFSCSVMHEALHNRFTQKSLSLSPG light: DIQLTQSPSFLSASVGDRVTITCRASQGISSYLAWYQQQPGKPPKLLIYAASTLHSGVPSRFSGSGSGTEFTLTISSLQPEDFATYYCQQLNRYPYTCGQGTKLEIKRTVAAPSVFIFPPSDEQLKSGTASVVCLLNNFYPREAKVQWKVDNALQSGNSQESVTEQDSKDSTYSLSSTLTLSKADYEKHKVYACEVTHQGLSSPVTKSFNRGEC | – | 0.17
3 | DGL465 (bispecific antibody, V domains shown) V domain 1: QVQLVESGGGLVQAGGSLRLSCAASGRAFSRYSMGWFRQAPGKEREFVAANYWSNGWTDYADTVKGRFSISRDNAKNTVYLQMNSLKPEDTAVYYCAGRSSSIPSADVVGYDYWGQGTQVTVEP V domain 2: QVQLVESGGGLVQPGGSLRLSCAASGFTFEPYDMSWFRQAPGKGPEWVSAIDKGGGAGATYYADSVKGRFTISRDNAKKTLYLQMKSLKPEDTAVYYCAITAGPYSDSTPRVAYRGEGTQVTVEP | > 100 nM | 0.69
4 | DGL484 (bispecific antibody, V domains shown) V domain 1: QVQLVESGGGLVQAGGSLRLSCAASARIFNSYAVAWFRQTPGKEREFVASISWSGGSTNYADSVKGRFTISRDNAKNTVFLQMNSLKPADTAVYYCAADRNYYPSVLGKYTYWGQGTQVTVEP V domain 2: QVQLVESGGGLVQPGGSLRLSCAASGFTFEPYDMSWFRQAPGKGPEWVSAIDKGGGAGATYYADSVKGRFTISRDNAKKTLYLQMKSLKPEDTAVYYCAITAGPYSDSTPRVAYRGEGTQVTVEP | 9.7e-09 M (implied) | 0.54
5 | DGL499 (bispecific antibody, V domains shown) V domain 1: EVQLVESGGGLVQAGGSLRLSCAASGLTFRNYAMAWFRQAPGKEREFVAGITWGGGLTHYVDSVKGRFTISRDNGKNTVYLQMNSLKSEDTAVYYCAGKTQGSTWYHLTPDGYDYWGQGTQVTVEP V domain 2: QVQLVESGGGLVQPGGSLRLSCAASGFTFEPYDMSWFRQAPGKGPEWVSAIDKGGGAGATYYADSVKGRFTISRDNAKKTLYLQMKSLKPEDTAVYYCAITAGPYSDSTPRVAYRGEGTQVTVEP | 8.1e-09 M (implied) | 0.56
6 | DGL571 (bispecific antibody, V domains shown) V domain 1: QVQLVESGGGLVQAGGSLRLSCAASRSISSFNEMAWYRQAPGEQRELVATIVSTVGFTNYADSVKGRFTISRDNAKNTVYLQMNSLKAEDTAVYYCNARRISTDYWGQGTQVTVEP V domain 2: QVQLVESGGGLVQPGGSLRLSCAASGFTFSNYAMSWIRQGPERGFEWVSRINSGGGTTSYADSVKGRFTISRDNAKNTLYLQMNSLKPEDTAVYYCAKHSHPDYSSNYYRPGQGTQVTVEP | > 100 nM | 0.64
7 | DGL599 (bispecific antibody, human IgG1, V domains shown) V domain 1: EVQLVESGGGLVQAGGSLRLSCAASGSKFSFNAMGWYRQTPGKQRELVAIIINGDMINYADSVKGRFTISRDNAKNTMYLQMNSLKPEDTAVYYCKMTRYVYDYWGQGTQVTVEP V domain 2: QVQLVQSGAEVKKPGASVRVSCKASGYTFTSYYIHWVRQAPGQGLEWMGIINPSGGSTSYAQKFQGRVTMTRDTSTTTVYMELSSLRSEDTAVYYCAKSNWAYAFDIWGQGTMVTVSS | > 100 nM | 0.48
8 | DGL524 (bispecific antibody, V domains shown) V domain 1: EVQLVESGGGLVQPGGSLRLFCAASRSIFNINIMGWYRQAPGKQREWLASITSGGSTFYADSVKDRFTISRDSVKNTVYLQMNSLKPEDTAAYYCNRYRSVPLNTVYPWGQGTLVTVEP V domain 2: QVQLVESGGGLVQAGGSLRLSCAASGRIFSAYRMGWFRQAPGKEREFVAGITWRGQTTYYAASVKGRFTISKDNAKKTVYLQMNSLKPEETAVYYCAVETNGLGRWDRPSEYDYWGQGTQVTVEP | 4.4e-10 M (implied) | 0.58
9 | DGL537 (bispecific antibody, V domains shown) V domain 1: QVQLVESGGGLVQAGGSLRLSCLASGRTSNYFMGWFRQAPGKEREFVAAISRSGGGTWYADSVKGRFAISRDNAKNTVNLQMNSLKREDTAVYYCAADRRTGTSVYTVDEYDYWGQGTQVTVEP V domain 2: QVQLVESGGGLVQAGGSLRLSCAASGRIFSAYRMGWFRQAPGKEREFVAGITWRGQTTYYAASVKGRFTISKDNAKKTVYLQMNSLKPEETAVYYCAVETNGLGRWDRPSEYDYWGQGTQVTVEP | 5.9e-10 M (implied) | 0.55
10 | DGL462 (bispecific antibody, V domains shown) V domain 1: EVQLVESGGGLVQPGGSLRLSCAASGFTFQNYAMSWLRKAPGEGLEWVSVINSGGGSTLYADSVKGRFTISRDNAKNTLYLQMHSLKSEDTAVYFCAKRRDDSTFGSLLYTHRGQGTQVTVEP V domain 2: QVQLVESGGGLVQAGGSLRLSCAASGRIFSAYRMGWFRQAPGKEREFVAGITWRGQTTYYAASVKGRFTISKDNAKKTVYLQMNSLKPEETAVYYCAVETNGLGRWDRPSEYDYWGQGTQVTVEP | 1.2e-09 M (implied) | 0.52
11 | DGL584 (bispecific antibody, V domains shown) V domain 1: QVQLQESGGGLVQAGGSLRLSCAASGSIASINAMGWYRQAPGKQRDFVARIQLSGSTNYAHSVRGRFTISRDNAKNTVYLQMNNLKPEDTAVYVCAASNTGSLYGLRNYWGQGTQVTVEP V domain 2: QVQLVESGGGLVQPGGSLRLSCAASGFTFSSKAMHWFRQAPGKGLEWVSSINSGGAITYYKDSVKGRFTVSRDNAKNILYLEMNSLKPEDTALYYCATDTDGRTRGQGTQVTVEP | > 100 nM | 0.58
12 | DGL408 (bispecific antibody, human IgG1, kappa) heavy 1: not shown heavy 2: QVQLVESGGGLVQPGGSLRLSCAASGFTFSNYAMSWVRQAPGKGLEWVSAINSDGTSTSYADSVKGQFTISRDNAKNTLYLQMNSLKPEDTAVYYCTKWEGDTDSDYKFKDYWGQGTQVTVEPKSSDKTHTCPPCPAPEAAGAPSVFLFPPKPKDTLMISRTPEVTCVVVDVSHEDPEVKFNWYVDGVEVHNAKTKPREEQYNSTYRVVSVLTVLHQDWLNGKEYKCKVSNKALPAPIEKTISKAKGQPREPQVCTLPPSRDELTKNQVSLSCAVKGFYPSDIAVEWESNGQPENNYKTTPPVLDSDGSFFLVSKLTVDKSRWQQGNVFSCSVMHEALHNRFTQKSLSLSPG light: not shown | – | 0.17
13 | DGL527 (bispecific antibody, V domains shown) V domain 1: EVQLVESGGGLVQPGGSLTLSCTASGFRFSDRSMGWYRQAPGKQRELVAAITVGGSTNYADSVKGRFTISRDNAKNTVYLQMNSLKPEDTALYYCNRRYPPDDYWGQGTQVTVEP V domain 2: QVQLVESGGGLVRPGGSLRLSCAASGFTFSSNGMHWFRQAPGKGLEWVSSIGSGGTSIYYADSVKGRFTISRDNAKNTLYLQMNSLKSDDTAVYYCSKEVTGATRGQGTQVTVEP | > 100 nM | 0.54
